The text below walks through data of PMC4499135.

Common to all, as to assay: EMSA
For orientation: In EMSA bound probe runs differently from free probe, usually more slowly.

One data set deals with TRF1-Myb. The settings on record: histone octamer, salt dilution; 20 mM Hepes pH 7.9, 100 mM NaCl, 50 mM KCl, 1 mM MgCl2, 0.1 mM EDTA, 1 mM DTT, 5% glycerol, 0.5 mg/ml BSA, 0.1% NP-40, chicken erythrocyte nucleosome carrier ….
The next data set deals with TRF2-Myb. The settings on record: histone octamer, salt dilution; 20 mM Hepes pH 7.9, 100 mM NaCl, 50 mM KCl, 1 mM MgCl2, 0.1 mM EDTA, 1 mM DTT, 5% glycerol, 0.5 mg/ml BSA, 0.1% NP-40, chicken erythrocyte nucleosome carrier ….
Another data set concerns TRF2. Conditions: 20 mM Hepes pH 7.9, 100 mM NaCl, 50 mM KCl, 1 mM MgCl2, 0.1 mM EDTA, 1 mM DTT, 5% glycerol, 0.5 mg/ml BSA, 0.1% NP-40, chicken erythrocyte nucleosome carrier ….
The test system of another data set is TRF1. The settings on record: 20 mM Hepes pH 7.9, 100 mM NaCl, 50 mM KCl, 1 mM MgCl2, 0.1 mM EDTA, 1 mM DTT, 5% glycerol, 0.5 mg/ml BSA, 0.1% NP-40, chicken erythrocyte nucleosome carrier ….
The next data set relates to TRF2AΔB. The settings on record: 20 mM Hepes pH 7.9, 100 mM NaCl, 50 mM KCl, 1 mM MgCl2, 0.1 mM EDTA, 1 mM DTT, 5% glycerol, 0.5 mg/ml BSA, 0.1% NP-40, chicken erythrocyte nucleosome carrier ….
For the next data set, the system named is TRF2ΔB. The settings on record: 20 mM Hepes pH 7.9, 100 mM NaCl, 50 mM KCl, 1 mM MgCl2, 0.1 mM EDTA, 1 mM DTT, 5% glycerol, 0.5 mg/ml BSA, 0.1% NP-40, chicken erythrocyte nucleosome carrier ….
The mark [1] stands for this setting: histone tails removed by trypsin.
[2] abbreviates: intact histone octamer, scale: fold higher affinity vs naked Tel2-601-Tel2.

Turning to Tel8-L NCP, the binding signal (fold lower affinity vs naked Tel8-L) was 11 in the data set on TRF1-Myb; 13 in the data set with TRF2-Myb; 100 with TRF2 (C1/2 extrapolated, 3 experiments, histone octamer, salt dilution).
Take Tel2-601-Tel2 tailless NCP: the binding signal (fold lower affinity vs intact NCP) with TRF1 (setting [1]) is 3; in the data set with TRF2AΔB (setting [1]) it was 3; in the data set on TRF2ΔB (setting [1]), 2. The binding signal (fold higher affinity vs intact NCP) in the data set with TRF2 (setting [1]) was found to be 2.
Turning to Tel2-601-Tel2 NCP, the binding signal was found to be 3 in the data set with TRF1 (setting [2]); 2 in the data set on TRF2AΔB (setting [2]); 2 in the data set on TRF2 (intact histone octamer, scale: fold lower affinity vs naked Tel2-601-Tel2); 3 in the data set on TRF2ΔB (setting [2]).
